Measured values reported in patent US20250145711A1 (Janssen / Centocor, published 2025).

Biological target: T1, TRCW5 antigen (CD3δε-Fc-Avi) (biotinylated (site not stated))
T1 construct: also called recombinant CD3
Test: ELISA after heat

T1 sequence (chain, as listed by the source mutant limits assumed): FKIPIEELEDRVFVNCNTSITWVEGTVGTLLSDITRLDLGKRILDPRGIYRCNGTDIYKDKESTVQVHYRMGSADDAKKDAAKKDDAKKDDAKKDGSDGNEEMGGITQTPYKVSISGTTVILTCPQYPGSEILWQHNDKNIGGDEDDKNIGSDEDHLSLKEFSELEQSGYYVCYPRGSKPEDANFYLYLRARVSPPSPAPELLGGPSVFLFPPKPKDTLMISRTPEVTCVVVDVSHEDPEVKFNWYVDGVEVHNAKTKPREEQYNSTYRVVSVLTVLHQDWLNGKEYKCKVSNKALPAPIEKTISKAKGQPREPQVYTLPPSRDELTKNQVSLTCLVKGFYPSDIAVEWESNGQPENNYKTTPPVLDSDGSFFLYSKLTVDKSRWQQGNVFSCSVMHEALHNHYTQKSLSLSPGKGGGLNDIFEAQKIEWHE

% Retained 55° C. [%]	% Retained 60° C. [%]	% Retained 65° C. [%]	Binder
106	98	29	CD3B2026 (scFv) scFv: QVQLVQSGAEVKKPGSSVKVSCKASGYTFTRSTMHWVKQAPGQGLEWIGYINPSSAYTNYNQKFQGRVTLTADKSTSTAYMELSSLRSEDTAVYYCASPQVHYDYNGFPYWGQGTLVTVSSGGSEGKSSGSGSESKSTGGSEIVLTQSPATLSASPGERVTLSCSASSSVSYMNWYQQKPGTAPRRWIYDSSKLASGVPARFSGSGSGRDYTLTISSLEPEDFAVYYCQQWSRNPPTFGGGTKVEIK
108	105	35	CD3B2036 (scFv) scFv: QVQLVQSGAEVKKPGSSVKVSCKASGYTFTRSTMHWVKQAPGQGLEWMGYINPSSAYTNYAQKFQGRVTLTADKSTSTAYMELSSLRSEDTAVYYCASPQVHYDYNGFPYWGQGTLVTVSSGGSEGKSSGSGSESKSTGGSEIVLTQSPATLSASPGERVTLSCSASSSVSYMNWYQQKPGTAPRRWIYDSSKLASGVPARFSGSGSGRDYTLTISSLEPEDFAVYYCQQWSRNPPTFGGGTKVEIK
104	92	15	CD3B2028 (scFv) scFv: QVQLVQSGAEVKKPGSSVKVSCKASGYTFTRSTMHWVKQAPGQGLEWIGYINPSSAYTNYNQKFQGRVTLTADKSTSTAYMELSSLRSEDTAVYYCASPQVHYDYNGFPYWGQGTLVTVSSGGSEGKSSGSGSESKSTGGSEIVLTQSPATLSASPGERVTLSCSASSSVSYMNWYQQKPGTAPRRLIYDSSKLASGVPARFSGSGSGRDYTLTISSLEPEDFAVYYCQQWSRNPPTFGGGTKVEIK
101	80	9	CD3B2056 (scFv) scFv: QVQLVQSGAEVKKPGSSVKVSCKASGYTFTRSTMHWVRQAPGQGLEWIGYINPSSAYTNYNQKFQGRVTLTADKSTSTAYMELSSLRSEDTAVYYCASPQVHYDYNGFPYWGQGTLVTVSSGGSEGKSSGSGSESKSTGGSEIVLTQSPATLSASPGERVTLSCSASSSVSYMNWYQQKPGQSPRRLIYDSSKLASGVPARFSGSGSGRDYTLTISSLEPEDFAVYYCQQWSRNPPTFGGGTKVEIK
115	112	30	CD3B2053 (scFv) scFv: QVQLVQSGAEVKKPGSSVKVSCKASGYTFTRSTMHWVKQAPGQGLEWMGYINPSSAYTNYAQKFQGRVTLTADKSTSTAYMELSSLRSEDTAVYYCASPQVHYDYNGFPYWGQGTLVTVSSGGSEGKSSGSGSESKSTGGSEIVLTQSPATLSASPGERVTLSCSASSSVSYMNWYQQKPGQSPRRLIYDSSKLASGVPARFSGSGSGRDYTLTISSLEPEDFAVYYCQQWSRNPPTFGGGTKVEIK
102	96	11	CD3B2055 (scFv) scFv: QVQLVQSGAEVKKPGSSVKVSCKASGYTFTRSTMHWVRQAPGQGLEWIGYINPSSAYTNYNQKFQGRVTLTADKSTSTAYMELSSLRSEDTAVYYCASPQVHYDYNGFPYWGQGTLVTVSSGGSEGKSSGSGSESKSTGGSEIVLTQSPATLSASPGERVTLSCSASSSVSYMNWYQQKPGTSPRRWIYDSSKLASGVPARFSGSGSGRDYTLTISSLEPEDFAVYYCQQWSRNPPTFGGGTKVEIK
104	93	9	CD3B2027 (scFv) scFv: QVQLVQSGAEVKKPGSSVKVSCKASGYTFTRSTMHWVKQAPGQGLEWIGYINPSSAYTNYNQKFQGRVTLTADKSTSTAYMELSSLRSEDTAVYYCASPQVHYDYNGFPYWGQGTLVTVSSGGSEGKSSGSGSESKSTGGSEIVLTQSPATLSASPGERVTLSCSASSSVSYMNWYQQKPGTSPRRLIYDSSKLASGVPARFSGSGSGRDYTLTISSLEPEDFAVYYCQQWSRNPPTFGGGTKVEIK
105	95	22	CD3B2048 (scFv) scFv: QVQLVQSGAEVKKPGSSVKVSCKASGYTFTRSTMHWVKQAPGQGLEWIGYINPSSAYTNYNQKFQGRVTLTADKSTSTAYMELSSLRSEDTAVYYCASPQVHYDYNGFPYWGQGTLVTVSSGGSEGKSSGSGSESKSTGGSEIVLTQSPATLSASPGERVTLSCSASSSVSYMNWYQQKPGQAPRRLIYDSSKLASGVPARFSGSGSGRDYTLTISSLEPEDFAVYYCQQWSRNPPTFGGGTKVEIK
112	98	13	CD3B2059 (scFv) scFv: QVQLVQSGAEVKKPGSSVKVSCKASGYTFTRSTMHWVKQAPGQGLEWIGYINPSSAYTNYAQKFQGRVTLTADKSTSTAYMELSSLRSEDTAVYYCASPQVHYDYNGFPYWGQGTLVTVSSGGSEGKSSGSGSESKSTGGSEIVLTQSPATLSASPGERVTLSCSASSSVSYMNWYQQKPGQSPRRLIYDSSKLASGVPARFSGSGSGRDYTLTISSLEPEDFAVYYCQQWSRNPPTFGGGTKVEIK
92	66	3	CD3B2057 (scFv) scFv: QVQLVQSGAEVKKPGSSVKVSCKASGYTFTRSTMHWVRQAPGQGLEWIGYINPSSAYTNYNQKFQGRVTLTADKSTSTAYMELSSLRSEDTAVYYCASPQVHYDYNGFPYWGQGTLVTVSSGGSEGKSSGSGSESKSTGGSEIVLTQSPATLSASPGERVTLSCSASSSVSYMNWYQQKPGQAPRRLIYDSSKLASGVPARFSGSGSGRDYTLTISSLEPEDFAVYYCQQWSRNPPTFGGGTKVEIK
107	106	52	CD3B2040 (scFv) scFv: QVQLVQSGAEVKKPGSSVKVSCKASGYTFTRSTMHWVKQAPGQGLEWMGYINPSSAYTNYAQKFQGRVTLTADKSTSTAYMELSSLRSEDTAVYYCASPQVHYDYNGFPYWGQGTLVTVSSGGSEGKSSGSGSESKSTGGSEIVLTQSPATLSASPGERVTLSCSASSSVSYMNWYQQKPGQAPRRWIYDSSKLASGVPARFSGSGSGRDYTLTISSLEPEDFAVYYCQQWSRNPPTFGGGTKVEIK
108	102	41	CD3B2050 (scFv) scFv: QVQLVQSGAEVKKPGSSVKVSCKASGYTFTRSTMHWVKQAPGQGLEWMGYINPSSAYTNYNQKFQGRVTLTADKSTSTAYMELSSLRSEDTAVYYCASPQVHYDYNGFPYWGQGTLVTVSSGGSEGKSSGSGSESKSTGGSEIVLTQSPATLSASPGERVTLSCSASSSVSYMNWYQQKPGQSPRRLIYDSSKLASGVPARFSGSGSGRDYTLTISSLEPEDFAVYYCQQWSRNPPTFGGGTKVEIK
111	113	30	CD3B2046 (scFv) scFv: QVQLVQSGAEVKKPGSSVKVSCKASGYTFTRSTMHWVKQAPGQGLEWIGYINPSSAYTNYNQKFQGRVTLTADKSTSTAYMELSSLRSEDTAVYYCASPQVHYDYNGFPYWGQGTLVTVSSGGSEGKSSGSGSESKSTGGSEIVLTQSPATLSASPGERVTLSCSASSSVSYMNWYQQKPGTSPRRWIYDSSKLASGVPARFSGSGSGRDYTLTISSLEPEDFAVYYCQQWSRNPPTFGGGTKVEIK
106	88	20	CD3B2032 (scFv) scFv: QVQLVQSGAEVKKPGSSVKVSCKASGYTFTRSTMHWVKQAPGQGLEWMGYINPSSAYTNYNQKFQGRVTLTADKSTSTAYMELSSLRSEDTAVYYCASPQVHYDYNGFPYWGQGTLVTVSSGGSEGKSSGSGSESKSTGGSEIVLTQSPATLSASPGERVTLSCSASSSVSYMNWYQQKPGTSPRRLIYDSSKLASGVPARFSGSGSGRDYTLTISSLEPEDFAVYYCQQWSRNPPTFGGGTKVEIK
112	111	25	CD3B2052 (scFv) scFv: QVQLVQSGAEVKKPGSSVKVSCKASGYTFTRSTMHWVKQAPGQGLEWMGYINPSSAYTNYAQKFQGRVTLTADKSTSTAYMELSSLRSEDTAVYYCASPQVHYDYNGFPYWGQGTLVTVSSGGSEGKSSGSGSESKSTGGSEIVLTQSPATLSASPGERVTLSCSASSSVSYMNWYQQKPGTSPRRWIYDSSKLASGVPARFSGSGSGRDYTLTISSLEPEDFAVYYCQQWSRNPPTFGGGTKVEIK
106	98	15	CD3B2047 (scFv) scFv: QVQLVQSGAEVKKPGSSVKVSCKASGYTFTRSTMHWVKQAPGQGLEWIGYINPSSAYTNYNQKFQGRVTLTADKSTSTAYMELSSLRSEDTAVYYCASPQVHYDYNGFPYWGQGTLVTVSSGGSEGKSSGSGSESKSTGGSEIVLTQSPATLSASPGERVTLSCSASSSVSYMNWYQQKPGQSPRRLIYDSSKLASGVPARFSGSGSGRDYTLTISSLEPEDFAVYYCQQWSRNPPTFGGGTKVEIK
108	105	29	CD3B2049 (scFv) scFv: QVQLVQSGAEVKKPGSSVKVSCKASGYTFTRSTMHWVKQAPGQGLEWMGYINPSSAYTNYNQKFQGRVTLTADKSTSTAYMELSSLRSEDTAVYYCASPQVHYDYNGFPYWGQGTLVTVSSGGSEGKSSGSGSESKSTGGSEIVLTQSPATLSASPGERVTLSCSASSSVSYMNWYQQKPGTSPRRWIYDSSKLASGVPARFSGSGSGRDYTLTISSLEPEDFAVYYCQQWSRNPPTFGGGTKVEIK
106	100	23	CD3B2054 (scFv) scFv: QVQLVQSGAEVKKPGSSVKVSCKASGYTFTRSTMHWVKQAPGQGLEWMGYINPSSAYTNYAQKFQGRVTLTADKSTSTAYMELSSLRSEDTAVYYCASPQVHYDYNGFPYWGQGTLVTVSSGGSEGKSSGSGSESKSTGGSEIVLTQSPATLSASPGERVTLSCSASSSVSYMNWYQQKPGQAPRRLIYDSSKLASGVPARFSGSGSGRDYTLTISSLEPEDFAVYYCQQWSRNPPTFGGGTKVEIK
